To fix the notation:
B1: TET3 peptide 458-473 (Methylcytosine dioxygenase TET3), 16-mer library wild type / NSP3 SUD-M (ORF1ab Nsp3c SUD-M, residues 1356-1493) (parent)
chain 1: DPMAELEQLLGSASDY
chain 2: LPSIISNEKQEILGTVSWNLREMLAHAEETRKLMPVCVETKAIVSTIQRKYKGIKIQEGVVDYGARFYFYTSKTTVASLINTLNDLNETLVTMPLGYVTHGLNLEEAARYMRSLKVPATVSVSSPDAVTAYNGYLTSS
B2: NOTCH4 peptide 1606-1621 (Neurogenic locus notch homolog protein 4), 16-mer library wild type / NSP9 (ORF1ab Nsp9, residues 4141-4253) (parent)
chain 1: QGAWLGAPEPWEPLLD
chain 2: NNELSPVALRQMSCAAGTTQTACTDDNALAYYNTTKGGRFVLALLSDLQDLKWARFPKSDGTGTIYTELEPPCRFVTDTPKGPKVKYLYFIKGLNNLNRGMVLGSLAATVRLQ
B3: NEK9 peptide 736-751 (Serine/threonine-protein kinase Nek9), 16-mer library wild type / NSP9 (ORF1ab Nsp9, residues 4141-4253) (parent)
chain 1: NSSGLSIGTVFQSSSP
chain 2: B2 chain 2

The variants in the first experiment derive from B1. As to conditions: with NSP3 SUD-M (ORF1ab Nsp3c SUD-M, residues 1356-1493); bait immobilised on MaxiSorp plates (10 µg), library pre-cleared on GST, 2 h binding at 4 °C, five washes; one round per day, days 1-4; value from days 2 and 3; keep out of graded; scale: average fractional NGS count over selection days 2 and 3.
For the variant chain 1 A4L, the screen value is 0. Still for that read-out and setting: the value for chain 1 A4N was 0.

Regarding chain 1 M3Q, the screen value is 0. chain 1 M3T: the screen value turned out to be 0.

For chain 1 M3N, the screen value came to 0. Same read-out and setting: the value for chain 1 M3S was 0; that for chain 1 S14I was 0; that for chain 1 S14F was 0. For the variant chain 1 S14W, the screen value is 0. On the same count and under the same terms, the value for chain 1 D15G was 0. Same read-out and setting: the value for chain 1 D15N was 0; that for chain 1 D15K was 0. On the same count and under the same terms, the value for chain 1 E5Q was 0; that for chain 1 E5K was 0; that for chain 1 S12G was 0. With chain 1 S12Q, the screen value is 0. Consider chain 1 S12R, for which the screen value turned out to be 0.

Regarding chain 1 S12E, the screen value was determined as 0. The same measure, in the same setting: next, chain 1 S12I: 0. Still for that read-out and setting: next, chain 1 S12K: 0; chain 1 L9A: 0; chain 1 L9N: 0. Still for that read-out and setting: the value for chain 1 L9Y was 0.

In the case of chain 1 L9T, the screen value was determined as 0.

As for chain 1 G11I, the screen value turned out to be 0. Still for that read-out and setting: the value for chain 1 G11A was 0; that for chain 1 G11W was 0; that for chain 1 G11H was 0. The same measure, in the same setting: the value for chain 1 G11S was 0; that for chain 1 L10P was 0. Same read-out and setting: next, chain 1 L10R: 0; chain 1 L10Q: 0. Regarding chain 1 L10T, the screen value amounted to 0. On the same count and under the same terms, next, chain 1 L6W: 0. Still for that read-out and setting: the value for chain 1 L6S was 0; that for chain 1 L6M was 0; that for chain 1 L6R was 0. The same measure, in the same setting: the value for chain 1 L6K was 0. Regarding chain 1 Q8K, the screen value amounted to 0. On the same count and under the same terms, next, chain 1 Q8H: 0. Consider chain 1 Q8T, for which the screen value amounted to 0. Regarding chain 1 Q8S, the screen value turned out to be 0. Still for that read-out and setting: the value for chain 1 Q8R was 0. Same read-out and setting: next, chain 1 Q8M: 0. Same read-out and setting: the value for chain 1 Q8P was 0.

On to chain 1 A13V, for which the screen value was 0. Same read-out and setting: the value for chain 1 A13N was 0; that for chain 1 A13E was 0; that for chain 1 A13D was 0. On the same count and under the same terms, next, chain 1 Y16H: 0; chain 1 Y16A: 0; chain 1 P2A: 0. For the variant chain 1 P2R, the screen value came to 0.

With chain 1 P2D, the screen value came out at 0.

Take chain 1 P2W: the screen value stood at 0. Still for that read-out and setting: the value for chain 1 P2H was 0. As for chain 1 E7T, the screen value was determined as 0. Take chain 1 E7Y: the screen value was determined as 0.

As to chain 1 E7G, the screen value is 0. Turning to chain 1 E7N, the screen value is 1.67e-05. Still for that read-out and setting: next, chain 1 E7I: 0. Still for that read-out and setting: the value for chain 1 E7K was 0.

In a further experiment the parent is B2. As to conditions: with NSP9 (ORF1ab Nsp9, residues 4141-4253); bait immobilised on MaxiSorp plates (10 µg), library pre-cleared on GST, 2 h binding at 4 °C, five washes; one round per day, days 1-4; value from days 2 and 3; keep out of graded; scale: average fractional NGS count over selection days 2 and 3.
Consider chain 1 P8K, for which the screen value was determined as 0. Consider chain 1 G6Q, for which the screen value is 0. Same read-out and setting: next, chain 1 G6N: 0; chain 1 G6R: 0; chain 1 G6W: 0. chain 1 G6L: the screen value was 0. Still for that read-out and setting: the value for chain 1 G6E was 6.33e-05; that for chain 1 G6F was 0; that for chain 1 G6H was 0. As to chain 1 G6Y, the screen value is 0. In the case of chain 1 G6S, the screen value came to 0. On the same count and under the same terms, the value for chain 1 E12R was 8.31e-05. The same measure, in the same setting: the value for chain 1 L15W was 5.05e-05; that for chain 1 L15G was 6.9e-05; that for chain 1 E9H was 4.98e-05. With chain 1 E9R, the screen value stood at 5.73e-05.

With chain 1 A3H, the screen value is 3.7e-05. On the same count and under the same terms, next, chain 1 A3E: 2.97e-05; chain 1 A3G: 0. On to chain 1 W11R, for which the screen value amounted to 3.62e-05. The same measure, in the same setting: next, chain 1 W11K: 3.16e-05; chain 1 Q1G: 5.8e-05. On to chain 1 Q1S, for which the screen value was 7.35e-05. On the same count and under the same terms, the value for chain 1 Q1V was 3.52e-05; that for chain 1 G2T was 0; that for chain 1 G2Y was 0.

For chain 1 G2W, the screen value stood at 0. For the variant chain 1 G2R, the screen value amounted to 1.21e-05. Still for that read-out and setting: next, chain 1 G2L: 0. On the same count and under the same terms, next, chain 1 G2A: 0. As for chain 1 G2H, the screen value was determined as 0. As for chain 1 L5H, the screen value stood at 0. The same measure, in the same setting: next, chain 1 L5K: 0. On the same count and under the same terms, next, chain 1 L5V: 3.16e-05; chain 1 L5P: 3.64e-05; chain 1 L5M: 0. Same read-out and setting: the value for chain 1 L5Y was 0; that for chain 1 L14N was 1.14e-05. For the variant chain 1 L14E, the screen value stood at 4.45e-05. As for chain 1 L14D, the screen value came out at 2.68e-05. The same measure, in the same setting: next, chain 1 W4F: 7.26e-05; chain 1 W4Q: 0. The same measure, in the same setting: next, chain 1 W4T: 0. On the same count and under the same terms, the value for chain 1 W4H was 0; that for chain 1 W4M was 0; that for chain 1 W4I was 0.

The variants in another experiment derive from B3. The conditions noted are these: with NSP9 (ORF1ab Nsp9, residues 4141-4253); bait immobilised on MaxiSorp plates (10 µg), library pre-cleared on GST, 2 h binding at 4 °C, five washes; one round per day, days 1-4; value from days 2 and 3; keep out of graded; scale: average fractional NGS count over selection days 2 and 3.
As for chain 1 V10F, the screen value is 0.

chain 1 V10S: the screen value is 5.93e-05.

With chain 1 V10D, the screen value was 0.000207. For chain 1 V10T, the screen value worked out at 0. Consider chain 1 G8T, for which the screen value was found to be 0. Same read-out and setting: next, chain 1 G8Y: 0; chain 1 G8D: 0.000107. On to chain 1 S6Y, for which the screen value was 0. The same measure, in the same setting: the value for chain 1 S6W was 0. For the variant chain 1 S6Q, the screen value turned out to be 0.

In the case of chain 1 S6V, the screen value is 0. Still for that read-out and setting: the value for chain 1 S6L was 9.77e-05; that for chain 1 S6A was 0.000439. Same read-out and setting: next, chain 1 S6F: 0. For chain 1 S3M, the screen value was 5.44e-05.

In the case of chain 1 S3W, the screen value came out at 0.000185.

With chain 1 S3K, the screen value is 0. Still for that read-out and setting: the value for chain 1 S3H was 3.04e-05. Same read-out and setting: the value for chain 1 S3E was 0.000394. On to chain 1 S3Q, for which the screen value was determined as 0.000703. Regarding chain 1 S3V, the screen value came to 0. On the same count and under the same terms, the value for chain 1 S3D was 0.000508; that for chain 1 L5Q was 0; that for chain 1 L5V was 4.92e-05. For the variant chain 1 L5R, the screen value worked out at 0. Same read-out and setting: next, chain 1 L5K: 0; chain 1 G4W: 0; chain 1 G4I: 0. On the same count and under the same terms, the value for chain 1 G4Y was 0; that for chain 1 T9Y was 2.09e-05; that for chain 1 T9S was 0.

On to chain 1 T9D, for which the screen value was 0.00026. On the same count and under the same terms, the value for chain 1 T9L was 0; that for chain 1 T9G was 0. Same read-out and setting: the value for chain 1 T9P was 6.33e-05; that for chain 1 T9E was 0.00124; that for chain 1 T9H was 1.62e-05. Still for that read-out and setting: next, chain 1 T9N: 0.000187; chain 1 S13A: 0. On to chain 1 S13G, for which the screen value came out at 1.34e-05.

Regarding chain 1 S13D, the screen value worked out at 0.000121. For chain 1 S13T, the screen value amounted to 0.000105. Take chain 1 S13H: the screen value was 8.96e-05. Consider chain 1 S13E, for which the screen value came to 0.000579. The same measure, in the same setting: next, chain 1 S13M: 0; chain 1 S13L: 1.28e-05. Turning to chain 1 P16K, the screen value turned out to be 0.000119. In the case of chain 1 P16Q, the screen value came to 0. On the same count and under the same terms, the value for chain 1 P16N was 4.17e-05. As to chain 1 P16L, the screen value was 3.5e-05. Still for that read-out and setting: next, chain 1 P16D: 0.000477.

chain 1 P16V: the screen value is 0.000367.

On to chain 1 P16M, for which the screen value was 0. Same read-out and setting: next, chain 1 P16F: 0. On the same count and under the same terms, the value for chain 1 P16T was 2.95e-05; that for chain 1 S15G was 3.5e-05; that for chain 1 S15L was 2.69e-05. On the same count and under the same terms, the value for chain 1 S15I was 4.92e-05. With chain 1 S15K, the screen value was determined as 0.

The record behind these values is article PMC12102759.
